# From patent US20060252678A1
# Target: mouse LSR (lipolysis stimulated receptor) (mouse) (UniProt Q99KG5)
# Experiment: cell-based or functional assay
# UniProt Q99KG5, sequence (Q99KG5 36-594): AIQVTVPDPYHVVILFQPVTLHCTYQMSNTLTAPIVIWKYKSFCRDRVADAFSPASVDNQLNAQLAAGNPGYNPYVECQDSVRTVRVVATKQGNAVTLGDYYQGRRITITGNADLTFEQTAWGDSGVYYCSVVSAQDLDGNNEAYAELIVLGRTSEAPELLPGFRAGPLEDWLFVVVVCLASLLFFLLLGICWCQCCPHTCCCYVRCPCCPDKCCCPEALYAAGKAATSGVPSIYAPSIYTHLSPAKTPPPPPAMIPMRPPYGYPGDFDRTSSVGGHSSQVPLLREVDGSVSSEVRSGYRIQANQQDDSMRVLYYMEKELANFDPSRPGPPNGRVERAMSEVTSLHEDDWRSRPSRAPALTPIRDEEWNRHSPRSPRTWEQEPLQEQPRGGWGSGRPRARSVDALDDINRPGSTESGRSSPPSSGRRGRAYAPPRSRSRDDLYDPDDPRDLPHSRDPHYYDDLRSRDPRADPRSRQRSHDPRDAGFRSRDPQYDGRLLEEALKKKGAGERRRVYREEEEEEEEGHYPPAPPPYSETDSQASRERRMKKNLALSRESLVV
substance,measurement,value
125I-mouse leptin (from UniProt P41160 22-167) (ligand),cell-associated 125I-leptin in BPRCL mouse liver cells after pre-incubation with increasing AdipoQ (AQ) or globular AdipoQ (AQ-GH),> 30%
